Measurements as given in patent publication US20070232789A1 (UNIVERSITY OF MARYLAND BALTIMORE, published 2007).
Values belong to the binder of their own block, whether it stands above or below them.

Assays:
[1] = target: T1, low-density lipoprotein receptor-related protein (LRP), purified (human, UniProt Q07954 20-4544); experiment: homologous displacement of ^125I-A2 (5 nM) by unlabeled A2 on LRP-coated wells, LIGAND fit
T1 construct: mature; also called low density lipoprotein receptor-related protein/α2-macroglobulin receptor; LRP receptor

[2] = target: T1, low-density lipoprotein …; experiment: heterologous displacement of ^125I-fVIII (1 nM) from immobilised LRP; isolated A2 domain as unlabeled competitor
Method: (§1) Solid-phase binding assays. […] Microtiter wells were coated with purified LRP or BSA (3 μg/ml) in 50 mM Tris, 0.15 M NaCl, pH 8.0, for 16 h and then blocked with 3% BSA in TBS. […] The radioactivity bound to the wells was counted using a γ-counter (Pharmacia). Affinity constants were derived from homologous and heterologous displacement data using the computer program LIGAND (Munson, P T and Rodbard, D. Anal. Biochem. 107:220-239 (1980)).

[3] = target: LRP on mouse embryonic fibroblasts (MEF cells) (mouse, UniProt Q91ZX7 20-4545); experiment: cell-based or functional assay
[4] = target: T1, low-density lipoprotein …; experiment: heterologous displacement of ^125I-fVIII (1 nM) from immobilised LRP; HCh as unlabeled competitor
Method: as §1

T1 sequence (Q07954 20-4544, form in doubt): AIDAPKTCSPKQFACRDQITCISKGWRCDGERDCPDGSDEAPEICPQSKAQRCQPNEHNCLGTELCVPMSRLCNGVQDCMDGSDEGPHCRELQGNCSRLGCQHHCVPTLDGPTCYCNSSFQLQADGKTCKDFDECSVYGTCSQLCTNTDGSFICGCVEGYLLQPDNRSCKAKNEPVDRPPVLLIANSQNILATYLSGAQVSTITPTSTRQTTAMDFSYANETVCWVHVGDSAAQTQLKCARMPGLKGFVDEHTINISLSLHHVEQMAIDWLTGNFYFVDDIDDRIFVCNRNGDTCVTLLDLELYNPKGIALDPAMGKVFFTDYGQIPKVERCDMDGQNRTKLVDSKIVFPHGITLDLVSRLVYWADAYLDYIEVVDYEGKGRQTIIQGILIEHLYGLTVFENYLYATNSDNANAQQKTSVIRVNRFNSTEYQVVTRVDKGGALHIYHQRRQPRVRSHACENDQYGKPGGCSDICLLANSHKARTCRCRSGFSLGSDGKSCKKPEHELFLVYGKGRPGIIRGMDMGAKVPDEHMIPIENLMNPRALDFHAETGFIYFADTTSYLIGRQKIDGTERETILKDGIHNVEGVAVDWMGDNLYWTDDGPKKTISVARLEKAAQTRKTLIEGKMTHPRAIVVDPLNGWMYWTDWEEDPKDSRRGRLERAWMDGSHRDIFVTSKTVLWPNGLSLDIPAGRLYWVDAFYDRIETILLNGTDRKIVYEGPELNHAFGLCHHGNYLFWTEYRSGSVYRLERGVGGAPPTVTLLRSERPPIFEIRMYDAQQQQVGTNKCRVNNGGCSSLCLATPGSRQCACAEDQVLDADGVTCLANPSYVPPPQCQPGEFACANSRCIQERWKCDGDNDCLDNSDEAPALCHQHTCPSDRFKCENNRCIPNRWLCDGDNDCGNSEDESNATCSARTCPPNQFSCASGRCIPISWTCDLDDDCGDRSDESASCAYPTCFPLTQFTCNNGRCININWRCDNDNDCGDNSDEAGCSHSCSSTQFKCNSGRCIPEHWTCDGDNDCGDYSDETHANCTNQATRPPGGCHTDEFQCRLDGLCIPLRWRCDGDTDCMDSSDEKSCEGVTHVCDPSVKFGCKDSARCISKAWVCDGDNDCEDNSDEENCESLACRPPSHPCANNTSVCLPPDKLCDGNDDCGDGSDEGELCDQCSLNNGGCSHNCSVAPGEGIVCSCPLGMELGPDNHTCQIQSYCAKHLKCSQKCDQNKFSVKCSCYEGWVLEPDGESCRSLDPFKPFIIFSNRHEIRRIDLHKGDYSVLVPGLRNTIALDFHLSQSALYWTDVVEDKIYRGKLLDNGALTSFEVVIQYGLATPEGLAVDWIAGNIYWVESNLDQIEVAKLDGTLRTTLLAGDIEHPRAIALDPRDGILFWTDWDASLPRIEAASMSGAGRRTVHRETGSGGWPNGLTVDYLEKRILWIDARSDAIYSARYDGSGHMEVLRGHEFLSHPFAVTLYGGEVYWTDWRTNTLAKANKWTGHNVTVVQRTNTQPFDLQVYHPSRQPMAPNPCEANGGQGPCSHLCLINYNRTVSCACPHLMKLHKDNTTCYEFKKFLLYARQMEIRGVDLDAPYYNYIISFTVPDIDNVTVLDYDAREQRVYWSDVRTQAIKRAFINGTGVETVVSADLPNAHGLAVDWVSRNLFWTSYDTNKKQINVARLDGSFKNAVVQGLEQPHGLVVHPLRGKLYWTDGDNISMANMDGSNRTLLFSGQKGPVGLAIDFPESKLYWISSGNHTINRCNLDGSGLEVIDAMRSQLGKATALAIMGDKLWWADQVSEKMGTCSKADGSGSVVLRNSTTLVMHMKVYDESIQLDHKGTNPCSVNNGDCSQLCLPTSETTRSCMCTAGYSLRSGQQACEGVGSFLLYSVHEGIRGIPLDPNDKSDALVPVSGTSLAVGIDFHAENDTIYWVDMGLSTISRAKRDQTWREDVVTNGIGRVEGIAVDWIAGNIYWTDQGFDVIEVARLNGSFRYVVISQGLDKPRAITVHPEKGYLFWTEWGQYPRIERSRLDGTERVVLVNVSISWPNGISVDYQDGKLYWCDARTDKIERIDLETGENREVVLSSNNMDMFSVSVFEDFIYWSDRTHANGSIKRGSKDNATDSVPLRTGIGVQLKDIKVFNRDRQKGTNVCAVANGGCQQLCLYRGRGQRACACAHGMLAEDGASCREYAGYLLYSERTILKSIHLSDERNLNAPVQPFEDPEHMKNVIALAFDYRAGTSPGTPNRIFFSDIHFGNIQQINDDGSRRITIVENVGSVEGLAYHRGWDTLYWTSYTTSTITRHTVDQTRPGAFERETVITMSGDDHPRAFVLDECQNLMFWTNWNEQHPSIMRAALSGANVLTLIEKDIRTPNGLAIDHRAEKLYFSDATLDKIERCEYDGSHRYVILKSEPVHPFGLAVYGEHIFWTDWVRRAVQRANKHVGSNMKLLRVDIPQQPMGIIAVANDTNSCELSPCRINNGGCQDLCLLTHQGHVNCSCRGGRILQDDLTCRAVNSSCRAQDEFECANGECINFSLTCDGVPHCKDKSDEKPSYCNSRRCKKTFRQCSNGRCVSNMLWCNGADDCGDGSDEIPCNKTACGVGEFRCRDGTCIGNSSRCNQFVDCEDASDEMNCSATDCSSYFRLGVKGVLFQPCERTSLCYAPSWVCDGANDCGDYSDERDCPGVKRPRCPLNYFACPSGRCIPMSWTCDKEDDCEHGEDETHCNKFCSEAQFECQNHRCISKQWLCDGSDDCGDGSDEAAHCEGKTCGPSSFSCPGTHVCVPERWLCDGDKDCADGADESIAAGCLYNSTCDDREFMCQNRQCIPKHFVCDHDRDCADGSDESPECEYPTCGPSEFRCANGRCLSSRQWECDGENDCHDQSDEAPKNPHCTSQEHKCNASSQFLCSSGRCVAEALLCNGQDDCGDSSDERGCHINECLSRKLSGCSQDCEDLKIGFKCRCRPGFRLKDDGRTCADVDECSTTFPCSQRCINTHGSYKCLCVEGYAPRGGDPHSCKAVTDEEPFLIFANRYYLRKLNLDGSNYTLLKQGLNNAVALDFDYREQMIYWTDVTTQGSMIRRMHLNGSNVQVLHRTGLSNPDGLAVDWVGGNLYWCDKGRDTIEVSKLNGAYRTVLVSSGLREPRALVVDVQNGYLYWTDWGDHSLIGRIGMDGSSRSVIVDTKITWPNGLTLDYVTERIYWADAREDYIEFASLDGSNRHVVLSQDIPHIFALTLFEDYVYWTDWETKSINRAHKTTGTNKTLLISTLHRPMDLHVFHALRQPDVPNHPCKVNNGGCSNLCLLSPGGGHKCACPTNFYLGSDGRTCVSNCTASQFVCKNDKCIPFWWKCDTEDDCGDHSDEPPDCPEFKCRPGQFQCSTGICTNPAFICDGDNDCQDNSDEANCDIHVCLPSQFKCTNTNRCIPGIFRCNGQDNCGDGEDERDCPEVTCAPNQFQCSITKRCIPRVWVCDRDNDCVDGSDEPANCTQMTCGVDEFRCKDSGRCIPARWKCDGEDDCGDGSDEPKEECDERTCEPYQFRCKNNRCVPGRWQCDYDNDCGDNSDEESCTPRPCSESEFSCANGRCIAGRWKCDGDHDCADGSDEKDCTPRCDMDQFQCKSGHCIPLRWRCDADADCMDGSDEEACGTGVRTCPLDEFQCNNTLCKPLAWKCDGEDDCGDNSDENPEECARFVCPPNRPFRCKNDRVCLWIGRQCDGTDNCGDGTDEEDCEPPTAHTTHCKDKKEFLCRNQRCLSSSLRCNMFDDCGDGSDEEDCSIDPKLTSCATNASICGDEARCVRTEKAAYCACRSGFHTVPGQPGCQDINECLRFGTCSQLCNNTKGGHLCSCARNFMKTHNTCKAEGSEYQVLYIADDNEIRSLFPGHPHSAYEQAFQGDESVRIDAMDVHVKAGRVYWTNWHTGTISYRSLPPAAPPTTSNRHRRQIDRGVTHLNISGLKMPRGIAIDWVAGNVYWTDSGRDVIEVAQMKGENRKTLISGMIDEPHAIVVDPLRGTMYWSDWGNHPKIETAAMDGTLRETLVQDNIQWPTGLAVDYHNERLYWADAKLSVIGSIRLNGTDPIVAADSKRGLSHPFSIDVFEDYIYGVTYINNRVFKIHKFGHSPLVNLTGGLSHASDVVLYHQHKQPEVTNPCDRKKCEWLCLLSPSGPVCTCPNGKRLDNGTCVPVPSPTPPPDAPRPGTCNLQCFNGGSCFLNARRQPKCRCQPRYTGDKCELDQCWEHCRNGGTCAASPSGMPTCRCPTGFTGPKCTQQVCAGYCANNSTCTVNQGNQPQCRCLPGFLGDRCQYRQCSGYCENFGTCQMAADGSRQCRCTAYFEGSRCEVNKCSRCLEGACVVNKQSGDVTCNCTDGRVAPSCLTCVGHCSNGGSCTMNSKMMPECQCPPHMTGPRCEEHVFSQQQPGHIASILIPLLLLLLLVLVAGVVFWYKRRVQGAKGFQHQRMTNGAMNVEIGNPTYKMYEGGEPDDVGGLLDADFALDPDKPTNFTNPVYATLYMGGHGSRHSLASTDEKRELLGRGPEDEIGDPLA

Kd [1]: 130 nM | Ki [2]: 132 nM | inhibition of degradation of ^125I-fVIII/vWf complex by MEF cells by a 1000-fold excess of A2 [3]: > 60% | inhibition of internalization of ^125I-fVIII/vWf complex by MEF cells by a 1000-fold excess of A2 [3]: > 70%
B1: A2 subunit of factor VIII, plasma-derived (from thrombin-activated fVIII) (other)
chain: SVAKKHPKTWVHYIAAEEEDWDYAPLVLAPDDRSYKSQYLNNGPQRIGRKYKKVRFMAYTDETFKTREAIQHESGILGPLLYGEVGDTLLIIFKNQASRPYNIYPHGITDVRPLYSRRLPKGVKHLKDFPILPGEIFKYKWTVTVEDGPTKSDPRCLTRYYSSFVNMERDLASGLIGPLLICYKESVDQRGNQIMSDKRNVILFSVFDENRSWYLTENIQRFLPNPAGVQLEDPEFQASNIMHSINGYVFDSLQLSVCLHEVAYWYILSIGAQTDFLSVFFSGYTFKHKMVYEDTLTLFPFSGETVFMSMENPGLWILGCHNSDFRNRGMTALLKVSSCDKNTGDYYEDSYEDISAYLLSKNNAIEPR
notes: Radio-iodinated where used as tracer; also called A2 domain; plasma-derived A2

Ki [4]: 120 nM
B2: heavy chain of factor VIII (HCh) (other)
chain: ATRRYYLGAVELSWDYMQSDLGELPVDARFPPRVPKSFPFNTSVVYKKTLFVEFTDHLFNIAKPRPPWMGLLGPTIQAEVYDTVVITLKNMASHPVSLHAVGVSYWKASEGAEYDDQTSQREKEDDKVFPGGSHTYVWQVLKENGPMASDPLCLTYSYLSHVDLVKDLNSGLIGALLVCREGSLAKEKTQTLHKFILLFAVFDEGKSWHSETKNSLMQDRDAASARAWPKMHTVNGYVNRSLPGLIGCHRKSVYWHVIGMGTTPEVHSIFLEGHTFLVRNHRQASLEISPITFLTAQTLLMDLGQFLLFCHISSHQHDGMEAYVKVDSCPEEPQLRMKNNEEAEDYDDDLTDSEMDVVRFDDDNSPSFIQIRSVAKKHPKTWVHYIAAEEEDWDYAPLVLAPDDRSYKSQYLNNGPQRIGRKYKKVRFMAYTDETFKTREAIQHESGILGPLLYGEVGDTLLIIFKNQASRPYNIYPHGITDVRPLYSRRLPKGVKHLKDFPILPGEIFKYKWTVTVEDGPTKSDPRCLTRYYSSFVNMERDLASGLIGPLLICYKESVDQRGNQIMSDKRNVILFSVFDENRSWYLTENIQRFLPNPAGVQLEDPEFQASNIMHSINGYVFDSLQLSVCLHEVAYWYILSIGAQTDFLSVFFSGYTFKHKMVYEDTLTLFPFSGETVFMSMENPGLWILGCHNSDFRNRGMTALLKVSSCDKNTGDYYEDSYEDISAYLLSKNNAIEPRSFSQNSRHRSTRQKQFNATTIPENDIEKTDPWFAHRTPMPKIQNVSSSDLLMLLRQSPTPHGLSLSDLQEAKYETFSDDPSPGAIDSNNSLSEMTHFRPQLHHSGDMVFTPESGLQLRLNEKLGTTAATELKKLDFKVSSTSNNLISTIPSDNLAAGTDNTSSLGPPSMPVHYDSQLDTTLFGKKSSPLTESGGPLSLSEENNDSKLLESGLMNSQESSWGKNVSSTESGRLFKGKRAHGPALLTKDNALFKVSISLLKTNKTSNNSATNRKTHIDGPSLLIENSPSVWQNILESDTEFKKVTPLIHDRMLMDKNATALRLNHMSNKTTSSKNMEMVQQKKEGPIPPDAQNPDMSFFKMLFLPESARWIQRTHGKNSLNSGQGPSPKQLVSLGPEKSVEGQNFLSEKNKVVVGKGEFTKDVGLKEMVFPSSRNLFLTNLDNLHENNTHNQEKKIQEEIEKKETLIQENVVLPQIHTVTGTKNFMKNLFLLSTRQNVEGSYDGAYAPVLQDFRSLNDSTNRTKKHTAHFSKKGEEENLEGLGNQTKQIVEKYACTTRISPNTSQQNFVTQRSKRALKQFRLPLEETELEKRIIVDDTSTQWSKNMKHLTPSTLTQIDYNEKEKGAITQSPLSDCLTRSHSIPQANRSPLPIAKVSSFPSIRPIYLTRVLFQDNSSHLPAASYRKKDSGVQESSHFLQGAKKNNLSLAILTLEMTGDQREVGSLGTSATNSVTYKKVENTVLPKPDLPKTSGKVELLPKVHIYQKDLFPTETSNGSPGHLDLVEGSLLQGTEGAIKWNEANRPGKVPFLRVATESSAKTPSKLLDPLAWDNHYGTQIPKEEWKSQEKSPEKTAFKKKDTILSLNACESNHAIAAINEGQNKPEIEVTWAKQGRTERLCSQNPPVLKRHQR
notes: Prepared from plasma-derived fVIII
